Results taken from patent US12715927.

How the values were obtained:
[1] = target: extracellular domain of human LEPR with an N-terminal myc-myc tag, GPI-anchored on HEK293 cells (human) (UniProt P48357); assay: FACS, secondary alone, HEK293/hLEPR-GPI, no added Leptin
[2] = target: extracellular domain of human LEPR with an N-terminal myc-myc tag, GPI-anchored on HEK293 cells (human) (UniProt P48357); assay: FACS, secondary alone, HEK293/hLEPR-GPI, with 1 µM Leptin

Chain of extracellular domain of human LEPR with an N-terminal myc-myc tag, GPI-anchored on HEK293 cells (human) (P48357 22-839 limits assumed): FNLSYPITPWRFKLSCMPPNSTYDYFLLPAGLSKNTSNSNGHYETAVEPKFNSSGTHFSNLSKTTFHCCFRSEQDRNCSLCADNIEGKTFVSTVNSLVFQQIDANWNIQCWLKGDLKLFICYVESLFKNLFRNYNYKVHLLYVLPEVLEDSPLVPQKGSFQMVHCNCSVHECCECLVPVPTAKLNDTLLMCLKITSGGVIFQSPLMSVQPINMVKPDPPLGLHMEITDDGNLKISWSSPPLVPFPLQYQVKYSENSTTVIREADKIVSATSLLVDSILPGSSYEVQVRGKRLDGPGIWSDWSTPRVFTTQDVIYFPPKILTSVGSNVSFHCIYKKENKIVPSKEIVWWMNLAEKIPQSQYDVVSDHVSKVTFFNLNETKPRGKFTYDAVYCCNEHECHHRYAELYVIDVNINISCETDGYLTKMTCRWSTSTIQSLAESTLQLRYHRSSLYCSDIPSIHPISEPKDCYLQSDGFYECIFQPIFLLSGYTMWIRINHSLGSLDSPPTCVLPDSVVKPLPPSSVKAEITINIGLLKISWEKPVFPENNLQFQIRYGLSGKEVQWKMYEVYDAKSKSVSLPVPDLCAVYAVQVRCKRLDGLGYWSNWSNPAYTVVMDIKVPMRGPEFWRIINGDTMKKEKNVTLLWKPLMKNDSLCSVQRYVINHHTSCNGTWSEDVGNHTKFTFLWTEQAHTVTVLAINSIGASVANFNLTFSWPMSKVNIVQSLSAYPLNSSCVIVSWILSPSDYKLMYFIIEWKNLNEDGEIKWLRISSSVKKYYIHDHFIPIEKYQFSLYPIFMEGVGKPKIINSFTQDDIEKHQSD

Binding Ratio [1] [fold]	Binding Ratio [2] [fold]	Substance
3	3	Anti-human IgG secondary antibody alone
2	2	Anti-mouse IgG secondary antibody alone
